The substances below were run against mitochondrially targeted human MSRA tagged with tGFP at its C-terminus (targeting sequence of ornithine carbamoyltransferase fused to the N-terminus of MSRA) (assay: co-immunoprecipitation (anti-FLAG IP, anti-tGFP blot), band intensity quantitated with Odyssey infrared scanner). Settings: HEK293 cells; 3 separate experiments; parent: est. 100; read off a plot.
Work on FLAG-tagged human Ndufaf2 M85V yielded a percent of parent of 90%.
Work on FLAG-tagged human Ndufaf2 M85V; M160V yielded a percent of parent of 36%.
With FLAG-tagged human Ndufaf2 M160V the percent of parent was 90%.

From article PMC9904299
